Experimental data published in patent US20080138334A1, “Immune-Derived Moieties Reactive Against Bioactive Lipids, and Methods of Making and Using Same” (priority 2006, published 2008).
Entries after “also recorded” stand apart in the source; their conditions may differ. Read-outs that look alike come from different tables or passages of the source. Each block holds one molecule with its values, some of them ahead of it.

Experiments:
[1] = Direct ELISA, chimeric antibody and mutants binding to S1P; conditions: for Binding: antibody concentration 0.1 ug/ml, S1P-coated plate
Method: Microtiter ELISA plates (Costar) were coated overnight with S1P diluted in 1 M Carbonate Buffer (pH 9.5) at 37° C. for 1 hr. Plates were washed with PBS (137 mM NaCl, 2.68 mM KCl, 10.1 mM Na2HPO4, 1.76 mM KH2PO4; pH 7.4) and blocked with PBS/BSA/Tween-20 for 1 hr at room temp or overnight at 4° C. For the primary incubation (1 hr at room temp.), a standard curve using the anti-S1P mAb and the samples to be tested for binding was built using the following set of dilutions: 0.4 μg/mL, 0.2 μg/mL, 0.1 μg/mL, 0.05 μg/mL, 0.0125 μg/mL, and 0 μg/mL, and 100 μl added to each well. Plates were washed and incubated with 100 μl per well of HRP conjugated goat anti-mouse (1:20,000 dilution) (Jackson Immuno Research) or HRP conjugated goat anti-human (H+L) diluted 1:50,000 (Jackson Immuno Research) for 1 hr at room temperature. After washing, the enzymatic reaction was detected with tetramethylbenzidine (Sigma) and stopped by adding 1 M H2SO4. The optical density (OD) was measured at 450 nm using a Thermo Multiskan EX. Raw data were transferred to GraphPad software for analysis.
The chromogenic reaction was measured and reported as Optical density (OD). The concentration of the panel of antibodies was 0.1 ug/ml. No interaction of the second antibody with S1P-coated matrix alone was detected.

[2] = system: Caki-1 cells; test: In vitro IL-8 production, ELISA of culture supernatants; format: cell-based, human; conditions: 18:1 LPA (0.2 mM), 24h, non-treated cells
Method: Three anti-LPA mAbs (B3, B7 and B58) were tested for their abilities to reduce in vitro IL-8 production compared to a non-specific antibody (NS). Caki-1 cells were seeded in 96 well plates and grown to confluency. After overnight serum starvation, cells were treated with 18:1 LPA (0.2 mM) with or without anti-LPA mAb B3, B7, B58 or NS (Non-Specific). After 24h, cultured supernatants of renal cancer cells (Caki-1), treated with or without LPA and in presence of increasing concentrations of the anti-LPA mAbs B3, B7 and B58, were collected and analyzed for IL-8 levels using a commercially available ELISA kit (Human Quantikine Kit, R&D Systems, Minneapolis, Minn.). […] Similar results were obtained with the other well-known pro-angiogenic factor, VEGF. The inhibition of IL-8 release by the anti-LPA mAbs was also observed in other cancerous cell lines such as the pancreatic cell line Panc-1.

[3] = ELISA with exchanged crosslinker or protein carrier in the laydown material; format: binding
Excerpt: For example, the normal crosslinker SMCC was exchanged for IOA in conjugating the thiolated-S1P to BSA as the laydown material in the ELISA. […] Similarly, KLH was exchanged for BSA as the protein that was complexed with thiolated-S1P as the laydown material.

[4] = Competitive ELISA for cross reactivity of anti-S1P mAb, competitor S1P; format: binding
Method: (§1) Screening of serum and cell supernatant for S1P-specific antibodies was by direct ELISA using the thiolated S1P analog described in Example 1 (i.e., compound 10) as the antigen. A standard ELISA was performed, as described below, except that 50 ul of sample (serum or cell supernatant) was diluted with an equal volume of PBS/0.1% Tween-20 (PBST) during the primary incubation. ELISAs were performed in 96-well high binding ELISA plates (Costar) coated with 0.1 μg of chemically-synthesized compound 10 conjugated to BSA in binding buffer (33.6 mM Na2CO3, 100 mM NaHCO3; pH 9.5). The thiolated-S1P-BSA was incubated at 37° C. for 1 hr. at 4° C. overnight in the ELISA plate wells. The plates were then washed four times with PBS (137 mM NaCl, 2.68 mM KCl, 10.14 mM Na2HPO4, 1.76 mM KH2PO4; pH 7.4) and blocked with PBST for 1 hr. at room temperature. For the primary incubation step, 75 uL of the sample (containing the S1P to be measured), was incubated with 25 uL of 0.1 ug/mL anti-S1P mAb diluted in PBST and added to a well of the ELISA plate. […] Optical density of the samples was determined by measurement at 450 nm using an EL- X-800 ELISA plate reader (Bio-Tech).
(§2) For cross reactivity, a competitive ELISA was performed as described above, except for the following alterations (FIG. 4). […] Biotin incorporation was determined as per kit protocol and ranged from 7 to II biotin molecules per antibody. […]

[5] = Competitive ELISA for cross reactivity of anti-S1P mAb, competitor LPA; format: binding; conditions: LPA (glycerol backbone)
Method: as §1, §2

[6] = Competitive ELISA for cross reactivity of anti-S1P mAb, competitor C1P; format: binding; conditions: C1P (amino group esterified to a fatty acid)
Method: as §1, §2

[7] = Competitive ELISA for cross reactivity of anti-S1P mAb, competitor SPC; format: binding; conditions: competitor SPC (free phosphate linked with a choline)
Method: as §1, §2

[8] = BIAcore binding kinetics of anti-S1P mAb to immobilized S1P; conditions: depending on monovalent or bivalent binding model, read-out: affinity of the monoclonal antibody to S1P
Method: Binding kinetics: The binding kinetics of S1P to its receptor or other moieties has, traditionally, been problematic because of the nature of lipids. Many problems have been associated with the insolubility of lipids. For BIAcore measurements, these problems were overcome by directly immobilizing S1P to a BIAcore chip. Antibody was then flowed over the surface of the chip and alterations in […] were measured to determine the binding characteristics of the antibody to S1P. To circumvent the bivalent binding nature of antibodies, S1P was coated on the chip at low densities. Additionally, the chip was coated with various densities of S1P (7, 20, and 1000 RU) and antibody binding data was globally fit to a 1:1 interaction model.

[9] = Competitive ELISA for cross reactivity of anti-S1P mAb, competitor DH-S1P; format: binding
Method: as §1, §2

Molecule: lysophosphatidic acid [LPA]
increase of the expression of IL-8 [2]: 100%

B1: anti-S1P mAb: murine IgG1 kappa monoclonal antibody against S1P from hybridoma clone 306D326.26 (ATCC SD-5362) (antibody, V domains shown)
VH: QAHLQQSDAELVKPGASVKISCKVSGFIFIDHTIHWMKQRPEQGLEWIGCISPRHDITKYNEMFRGKATLTADKSSTTAYIQVNSLTFEDSAVYFCARGGFYGSTIWFDFWGQGTTLTVS
VL: ETTVTQSPASLSMAIGEKVTIRCITTTDIDDDMNWFQQKPGEPPNLLISEGNILRPGVPSRFSSSGYGTDFLFTIENMLSEDVADYYCLQSDNLPFTFGSGTKLEIK
binding characteristics versus BSA laydown ([3]; KLH exchanged for BSA as protein): no significant difference | binding characteristics versus BSA-SMCC-thiolated-S1P laydown ([3]; SMCC exchanged for IOA): nearly identical | distinction of thiolated-S1P analog (compound 10) from natural S1P ([4]; competition experiment): unable to distinguish | competition for the mAb binding to S1P on the plate ([4]; competitor free S1P): can compete for binding | antibody binding [5]: no binding | antibody binding [6]: no antibody binding was observed | competition for the mAb binding to S1P on the plate [7]: somewhat reduced; also recorded: only slightly competes for binding | Kd ([8]; lower end): ~0.088 nM | Kd ([8]; upper end): ~99 nM | competition for the mAb binding to S1P on the plate [9]: can compete for binding

The remaining lines, values ahead:

binding to S1P compared with the chimeric antibody ([1]; ELISA, substitution of Cys at position 50 of heavy chain): did not alter the binding | Binding [1]: 2 OD
Molecule: CysPhe

Binding [1]: 1.6 OD
Molecule: MetLeu
